Assay results reported in the supplement of paper PMC10567573.

B1: TSN (parent)
chain: FVELQGFLAAEQDIREEIRKVVQS
B2: CCND1 (parent)
chain: IRRAYPDANLLNDRVLRAMLKAEE

Variants of: B1
Test: protein stability index of a GFP-peptide fusion (GPS, HEK-293T) (PSI 1-6); higher = more stable
Settings: c terminus: a fixed tail appended
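Note: lentivirally expressed fusions sorted by FACS into six bins by GFP to DsRed ratio, PSI derived from sequencing read proportions per bin multiplied by bin number.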

Protein stability index: each site, then its substitutions
S24: L 3.92, Q 1.97

Variants of: B2
Test: as above
Settings: c terminus: a fixed tail appended

Protein stability index, by site and new letter:
A18: P 2.29, I 2.36, H 3.17, Q 3.94, C 2.33, T 3.58, M 1.8, L 1.31, S 3.66, N 3.06, K 3.02, R 3.23, W 2.3, G 3.77
D13: A 2.28, R 3.68, Q 3.34, M 2.66, S 2.37, V 1.54, T 2.52, P 2.61, K 2.45, W 2.35, C 2.72, L 2.02, H 2.2, F 2.34, I 2.91, N 2.02
A8: S 2.81, F 2.54, N 3.46, H 2.28, Y 2.4, R 3.16, L 2.04, K 2.53, T 2.61, I 2.02, V 3.02, C 2.78, M 2.85, P 3.03
R3: I 1.13, P 2.71, Q 3.62, G 3.44, K 2.84, Y 2.05, D 4.23, W 1.99, M 2.35, N 2.66, H 2.92, F 1.87, E 3.72, T 3.17, V 1.54, A 2.86
A4: R 2.37, M 2.58, F 1.4, Y 2.68, E 2.04, I 2.4, C 2.17, P 3.12, N 2.59, H 2.4, V 1.79, Q 2.37, K 2.3, T 2.12, L 1.84, W 3.03
I1: P 3.34, A 2.77, S 3.94, W 2.32, L 2.5, Q 3.45, R 2.21, C 2.41, V 2.69, N 3.69, K 2.99, T 2.27, H 3.25
D7: T 2.23, S 2.43, K 2.1, A 1.83, N 3.11, L 1.84, P 2.09, H 2.14, Y 2.13, W 2.36, E 2.06, F 1.65
L10: H 2.94, K 3.23, P 2.63, F 2.52, T 3.13, I 1.22, W 2.02, R 3.08, V 2.49, N 3.58, S 2.14, Q 3.38, D 3.97, Y 3.34, A 2.48
R2: Y 1.6, A 3.82, N 2.84, K 2.87, H 2.08, T 2.92, I 2.4, F 1.94, D 4.09, Q 3.03, W 3.61, M 3.37, L 2.39, E 3.49, C 2.25, P 3.68
N9: Y 2.11, R 2.06, I 2.36, E 3.04, A 2.34, S 2.44, T 2.63, F 1.71, V 2.26, G 2.34, D 2.3
L20: E 4.09, G 4.01, H 2.55, A 3.3, S 3.69, D 4.05, Q 2.58, M 2.87, N 3.45, I 3.55, T 3.12, K 3.25, P 4.68, F 2.63, R 3.03, Y 2.9, W 2.32
L16: S 4.52, H 3.38, I 2.85, Y 3.66, G 2.99, P 4.08, K 3.67, E 4.28, A 3.43, V 2.94, Q 3.53, N 3.65
E23: D 2.42, H 1.62, N 2.18, M 2.3, I 1.21, K 2.75, C 1.92, F 1.62, L 3.39, A 1.87
Y5: T 3.49, C 2.9, K 3.3, A 3.33, G 2.14, E 2.51, H 2.02, N 2.43, W 2.13, L 3.07, P 3.69, D 1.54, R 2.53
P6: F 2.4, V 3.38, Y 1.63, S 3.19, G 2.13, E 2.14, D 1.43, T 1.88, A 1.75, I 2.21, L 2.42, R 2.35, M 2.99
M19: A 3, D 4.26, E 3, V 3.61, T 3.38, C 3.48, K 3.92, Q 3.52, F 3.26, N 4.92, P 3.79, H 3.54, R 3.15, W 3.96
R14: E 2.84, M 2.81, C 2.41, H 1.74, I 1.03, T 3.07, F 2.56, D 1.56, G 1.96, L 1.99, Q 2.29, A 2.3, K 1.83, Y 1.84
N12: A 3.21, W 2.19, H 2.5, G 3.05, E 3.41, S 2.11, C 2.51, D 2.87, K 2.15, Q 2.39, P 1.84, F 1.9, R 2.73, Y 2.52
K21: F 1.47, I 2.38, N 3.04, T 3.33, H 2.56, E 2.73, V 2.93, Q 1.89, L 3.01, A 2.35, C 3.33, W 1.83, P 3.85, R 2.79, G 2.52, S 2.72, M 1.76
L11: C 2.69, V 2.72, W 2.02, M 1.92, I 2.43, Q 3.79, G 2.84, D 4.19, K 3.33, N 1.97, E 3.58, S 3.01, F 1.75, P 2.48, T 3.04
A22: N 2.86, M 2.41, W 2.74, T 2.8, D 2.73, P 3.69, K 3.27, R 2.3, V 2.21, L 1.78, Q 2.64, E 3.08, S 2.37, Y 2.43, I 2.1, F 1.92, H 2.8
R17: P 3.46, Y 3.4, N 2.61, C 2.46, Q 2.68, T 3.47, H 2.31, I 1.82, E 2.22, S 2.72, M 3.21, F 2.1, L 3.01, W 1.74, V 1.72, D 2.12
V15: S 3.27, H 4.36, R 3.57, T 3.33, F 2.41, W 3.47, E 3.12, A 3.31, N 3.25, P 3.51, D 3.5, C 2.61, M 1.9, Q 4.11, I 1.99, G 3.37, L 1.9
